Results: patent publication US20200231974A1 (published 2020)

T1: HCMV pp65 peptide on HLA-B*07:02 (human)
T1 peptide: TPRVTGGGAM


Target: T1, HCMV pp65 peptide on HLA-B*07:02
Assay: multimer staining

| Binder | binding result |
| --- | --- |
| HBD4.1.S9-5.E3 (SEQ0717 and SEQ0718) (TCR, V domains shown) Valpha: SQQGEEDPQALSIQEGENATMNCSYKTSINNLQWYRQNSGRGLVHLILIRSNEREKHSGRLRVTLDTSKKSSSLLITASRAADTASYFCATELRMDSSYKLIFGSGTRLLVRP Vbeta: DTGVSQNPRHKITKRGQNVTFRCDPISEHNRLYWYRQTLGQGPEFLTYFQNEAQLEKSRLLSDRFSAERPKGSFSTLEIQRTEQGDSAMYLCASSLREGRLPETQYFGPGTRLLVL | recognises |
| HBD4.1.S9-2.A6 (SEQ0709 and SEQ0710) (TCR, V domains shown) Valpha: AQKITQTQPGMFVQEKEAVTLDCTYDTSDQSYGLFWYKQPSSGEMIFLIYQGSYDEQNATEGRYSLNFQKARKSANLVISASQLGDSAMYFCAMREGMDSSYKLIFGSGTRLLVRP Vbeta: DTGVSQNPRHKITKRGQNVTFRCDPISEHNRLYWYRQTLGQGPEFLTYFQNEAQLEKSRLLSDRFSAERPKGSFSTLEIQRTEQGDSAMYLCASSLHDRGARTEAFFGQGTRLTVV | recognises |
| HBD4.1.S9-7.E5 (SEQ0713 and SEQ0714) (TCR, V domains shown) Valpha: AQKITQTQPGMFVQEKEAVTLDCTYDTSDQSYGLFWYKQPSSGEMIFLIYQGSYDEQNATEGRYSLNFQKARKSANLVISASQLGDSAMYFCAMRPYTGGFKTIFGAGTRLFVKA Vbeta: EAQVTQNPRYLITVTGKKLTVTCSQNMNHEYMSWYRQDPGLGLRQIYYSMNVEVTDKGDVPEGYKVSRKEKRNFPLILESPSPNQTSLYFCASSTSPSTARYGYTFGSGTRLTVV | recognises |
| HBD4.1.S9-1.D5 (SEQ0707 and SEQ0708) (TCR, V domains shown) Valpha: DAKTTQPPSMDCAEGRAANLPCNHSTISGNEYVYWYRQIHSQGPQYIIHGLKNNETNEMASLIITEDRKSSTLILPHATLRDTAVYYCIVRDRYNTGNQFYFGTGTSLTVIP Vbeta: EAQVTQNPRYLITVTGKKLTVTCSQNMNHEYMSWYRQDPGLGLRQIYYSMNVEVTDKGDVPEGYKVSRKEKRNFPLILESPSPNQTSLYFCASSLGPSSYEQYFGPGTRLTVT | recognises |
| HBD4.1.S9-7.C5 (SEQ0715 and SEQ0716) (TCR, V domains shown) Valpha: AQSVAQPEDQVNVAEGNPLTVKCTYSVSGNPYLFWYVQYPNRGLQFLLKYITGDNLVKGSYGFEAEFNKSQTSFHLKKPSALVSDSALYFCAVRSRMDSSYKLIFGSGTRLLVRP Vbeta: DTGVSQNPRHKITKRGQNVTFRCDPISEHNRLYWYRQTLGQGPEFLTYFQNEAQLEKSRLLSDRFSAERPKGSFSTLEIQRTEQGDSAMYLCASSPPDAAYNEQFFGPGTRLTVL | recognises |
